Data taken from US20040253214A1.

Molecular target: bovine EGF receptor on MDBK cells (bovine) (UniProt F1N7F3)
Experiment: cell-based or functional assay

Q: For “EXGaLVMoT chimeric envelope (EGF displayed through a factor Xa-cleavable linker as an N-terminal extension of the Gibbon Ape Leukaemia virus SU glycoprotein), on retroviral vector particles (from UniProt P01133 971-1023; P21415 43-653; P03385 633-665)”, which Titre of GaLV vectors on EGF-R positive cells, MDBK, +Xa (displayed EGF domain cleaved with factor Xa before infection) is on record?
A: 12 efu/ml

Q: And the Titre of GaLV vectors on EGF-R positive cells, MDBK, -Xa?
A: < 1 efu/ml
